Assay results taken from doi:10.1101/2022.08.24.505195 (bioRxiv, 2022).

Target: the molecule itself
Experiment: SEC

B1: EBOV VP40 with 6xHis tag (pET46-VP40-6xHis), recombinant dimer (natural protein)
chain: MRRVILPTAPPEYMEAIYPVRSNSTIARGGNSNTGFLTPESVNGDTPSNPLRPIADDTIDHASHTPGSVSSAFILEAMVNVISGPKVLMKQIPIWLPLGVADQKTYSFDSTTAAIMLASYTITHFGKATNPLVRVNRLGPGIPDHPLRLLRIGNQAFLQEFVLPPVQLPQYFTFDLTALKLITQPLPAATWTDDTPTGSNGALRPGISFHPKLRPILLPNKSGKKGNSADLTSPEKIQAIMTSLQDFKIVPIDPTKNIMGIEVPETLVHKLTGKKVTSKNGQPIIPVLLPKYIGLDPVAPGDLTMVITQDCDTCHSPASLPAVIEK
How did the “stoichiometry N” value turn out when B1 was run?
The value was 2.
